# Test results as given in the supplement of paper PMC6757056.
# ± gives the standard deviation of the averaged measurements.
# B1: library; a variant is named by its letters at N, in order (parent)
# chain: GCUGUCACCGGUGCUUGGUACGUUAUAUUCAGCCGGUCUGAUGAGUCUNNNNNNAGACGAAACAGC
# How the values were obtained:
# [1] = variants of: B1; assay: normalized RNA/DNA level without ligand (relative to sTRSVctl = 100) (log10 (% of sTRSVctl)); HEK293T overexpressing SLC46A1; higher = less ribozyme self-cleavage, higher mRNA level; details: without (6R,S)-folinic acid; ligand present: no
# Procedure, shortened: (§1)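 Total RNA, extracted with EDTA 72 h after HEK293T cells were transfected with 4 µg per 6-well well of reporter-linked ribozyme switch library plasmids, was reverse-transcribed, amplified, barcoded and sequenced. Ligand, if used, was added 1 h before transfection. RNA level was derived from RNA reads divided by DNA reads and normalized to a spiked-in non-cleaving sequence or to the top sequences. This was multiplied by 100 and log10-transformed, with the top set of 25 sequences and a ≥100 DNA read minimum.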
# [2] = variants of: B1; assay: normalized RNA/DNA level with ligand (relative to sTRSVctl = 100) (log10 (% of sTRSVctl)); HEK293T overexpressing SLC46A1; ligand concentration (+) RNA-Seq: 6 mM; higher = less ribozyme self-cleavage, higher mRNA level; details: with (6R,S)-folinic acid; ligand present: yes
# Procedure, shortened: as §1
# [3] = variants of: B1; assay: FACS-Seq fitted mean relative fluorescence mCherry/BFP without ligand (log10 relative fluorescence); HEK293T overexpressing SLC46A1; higher = higher reporter protein expression; details: without (6R,S)-folinic acid; ligand present: no
# Procedure, shortened: (§2)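 Cells were sorted into 6 bins on the mCherry/BFP ratio after 48 h with or without ligand. These were enriched HEK293T cells transduced by lentivirus with a ribozyme-switch mCherry reporter plus an EF1α-BFP marker. Fluorescence was obtained by fitting a normal distribution to sequencing-derived bin counts. Counts came from MiSeq sequencing of PCR-amplified, barcoded genomic DNA, binned by log10(mCherry/BFP), with means scaled to five spiked-in control ribozymes.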
# [4] = variants of: B1; assay: FACS-Seq fitted mean relative fluorescence mCherry/BFP with ligand (log10 relative fluorescence); HEK293T overexpressing SLC46A1; ligand concentration (+) FACS-Seq: 6 mM; higher = higher reporter protein expression; details: with (6R,S)-folinic acid; ligand present: yes
# Procedure, shortened: as §2
Variant,normalized RNA/DNA level without ligand (log10) [1],normalized RNA/DNA level with ligand (log10) [2],FACS-Seq fitted mean (log10) [3],FACS-Seq fitted mean (log10) [4]
CAAUUU,1.995 ± 0.0068,2 ± 0.032,–,–
CAAUUG,2.014 ± 0.0049,2.06 ± 0.023,–,–
UAAGAU,1.9446 ± 0.0012,2.01 ± 0.024,–,–
UAAGAC,1.984 ± 0.00031,2.01 ± 0.034,–,–
AACAGC,2.0178 ± 0.00095,2.02 ± 0.022,–,–
CAAAGU,1.983 ± 0.013,2.01 ± 0.025,–,–
CAAAGC,1.992 ± 0.015,2 ± 0.04,–,–
CAAAGA,1.988 ± 0.015,1.99 ± 0.034,–,–
CAAAGG,1.909 ± 0.0072,2 ± 0.021,–,–
UAACAU,1.956 ± 0.016,2 ± 0.023,–,–
AUUGCG,1.8333 ± 0.00083,2 ± 0.04,0.231 ± 0.12,0.245 ± 0.22
UACAAC,2.0034 ± 0.0014,2.02 ± 0.034,–,–
GAAGUC,2.05 ± 0.021,2.04 ± 0.026,–,–
GAACAC,1.998 ± 0.018,2.014 ± 0.0037,–,–
GAACAU,1.9736 ± 0.0012,2.01 ± 0.035,–,–
CUUGAG,1.9276 ± 0.0002,2.005 ± 0.0023,0.41 ± 0.091,0.534 ± 0.33
CUUGAU,1.97 ± 0.018,2.008 ± 0.018,0.145 ± 0.1,0.602 ± 0.33
GUUUGU,2.03 ± 0.034,2.034 ± 0.014,0.326 ± 0.024,0.672 ± 0.18
CAAACA,1.979 ± 0.014,2 ± 0.044,–,–
CAAACG,2.02 ± 0.0085,2.03 ± 0.036,–,–
UACACU,2.017 ± 0.0061,2.03 ± 0.037,–,–
UACACC,2.025 ± 0.011,1.99 ± 0.048,–,–
UAAUAC,1.941 ± 0.0049,1.96 ± 0.021,–,–
UAAUAA,1.931 ± 0.0048,1.985 ± 0.013,–,–
GUUGUG,1.879 ± 0.0056,2.01 ± 0.023,0.391 ± 0.14,0.458 ± 0.072
GUUGUA,1.962 ± 0.011,1.97 ± 0.05,0.281 ± 0.083,0.415 ± 0.15

Variant,normalized RNA/DNA level without ligand (log10) [1],normalized RNA/DNA level with ligand (log10) [2],FACS-Seq fitted mean (log10) [3],FACS-Seq fitted mean (log10) [4]
AUUGAG,1.715 ± 0.01,1.946 ± 0.012,0.4944 ± 0.0016,0.969 ± 0.14
GUUGCG,1.91 ± 0.02,2.02 ± 0.038,0.325 ± 0.01,0.566 ± 0.19
GUUGCU,2.02 ± 0.023,2.008 ± 0.018,0.299 ± 0.016,0.44 ± 0.32
AACCAC,2.007 ± 0.0059,1.963 ± 0.015,–,–
UAAGUA,1.896 ± 0.0077,1.98 ± 0.034,–,–
CAACAU,1.978 ± 0.0086,2.02 ± 0.057,–,–
CAACAG,1.976 ± 0.00034,2.01 ± 0.062,–,–
CAACAC,2.0222 ± 0.00082,2.014 ± 0.019,–,–
CAACAA,1.966 ± 0.015,1.99 ± 0.032,–,–
CAACUU,2.039 ± 0.012,2.03 ± 0.052,–,–
CAACUC,2.06 ± 0.015,2.06 ± 0.024,–,–
CAACUG,2.029 ± 0.015,2.021 ± 0.016,–,–
CAACUA,2.01 ± 0.023,2.01 ± 0.035,–,–
GAACUC,2.044 ± 0.0052,2.028 ± 0.012,–,–
GAACUA,1.9884 ± 0.0016,2 ± 0.055,–,–
GAACUG,1.971 ± 0.0088,1.99 ± 0.028,–,–
GAACUU,2.002 ± 0.013,1.98 ± 0.028,–,–
UAAAUC,2.06 ± 0.0029,2.06 ± 0.045,–,–
UAAAUU,1.984 ± 0.011,2.017 ± 0.02,–,–
UAAAUA,1.952 ± 0.014,2 ± 0.034,–,–
AACAUU,2.03 ± 0.019,2.02 ± 0.022,–,–
AUUUAU,2.011 ± 0.0041,2.01 ± 0.035,0.207 ± 0.088,0.186 ± 0.11
AUUUAC,2.001 ± 0.018,2.03 ± 0.026,0.138 ± 0.029,0.497 ± 0.13
AAACCC,2.048 ± 0.0094,2.032 ± 0.0089,–,–
AAACCU,2.0232 ± 0.0015,2.03 ± 0.031,–,–
AAACCG,1.97 ± 0.0043,2 ± 0.029,–,–

Variant,normalized RNA/DNA level without ligand (log10) [1],normalized RNA/DNA level with ligand (log10) [2],FACS-Seq fitted mean (log10) [3],FACS-Seq fitted mean (log10) [4]
GAACCC,2.02 ± 0.018,2.017 ± 0.0044,–,–
GAACCG,2.018 ± 0.017,2.03 ± 0.038,–,–
GAACCA,2.0209 ± 0.0019,2.01 ± 0.037,–,–
GAAUGC,1.943 ± 0.012,2 ± 0.036,–,–
GAAUGU,1.988 ± 0.015,2.01 ± 0.035,–,–
UUUUGA,1.976 ± 0.013,2.02 ± 0.036,0.586 ± 0.1,0.704 ± 0.022
UUUUGG,1.8812 ± 0.0015,2.01 ± 0.028,0.169 ± 0.054,0.473 ± 0.2
UACAUU,2.005 ± 0.0053,1.99 ± 0.042,–,–
UACAUC,2.0657 ± 0.0019,2.04 ± 0.032,–,–
CAAUAC,1.984 ± 0.017,1.97 ± 0.038,–,–
CAAUAU,1.95 ± 0.025,2 ± 0.033,–,–
CACCAG,1.977 ± 0.019,2 ± 0.036,–,–
CACCAC,1.998 ± 0.019,1.99 ± 0.026,–,–
CACCAA,1.97 ± 0.016,1.99 ± 0.022,–,–
UUUGCG,1.867 ± 0.0062,1.98 ± 0.042,0.0287 ± 0.045,0.0548 ± 0.11
UUUGCA,1.981 ± 0.0053,1.99 ± 0.032,0.00421 ± 0.011,-0.275 ± 0.0052
UUUGCU,2.043 ± 0.02,2.01 ± 0.084,0.805 ± 0.017,0.618 ± 0.24
UAACCU,2.01 ± 0.024,2.018 ± 0.0082,–,–
UAACCC,1.991 ± 0.011,2 ± 0.035,–,–
AUUGUG,1.8 ± 0.0029,1.99 ± 0.035,0.281 ± 0.041,0.524 ± 0.1
UAAUUC,2.01 ± 0.027,2.02 ± 0.031,–,–
UAAUUA,1.991 ± 0.0035,2.01 ± 0.048,–,–
UAAUUU,1.979 ± 0.0057,2.01 ± 0.032,–,–
GAAAAA,1.986 ± 0.0038,2.01 ± 0.038,–,–
AAAUGU,1.9431 ± 0.0016,1.99 ± 0.028,–,–
CAAGAC,2.026 ± 0.0013,2.03 ± 0.038,–,–

Variant,normalized RNA/DNA level without ligand (log10) [1],normalized RNA/DNA level with ligand (log10) [2],FACS-Seq fitted mean (log10) [3],FACS-Seq fitted mean (log10) [4]
CAAGAU,1.97 ± 0.009,2.01 ± 0.025,–,–
GUUGGA,1.977 ± 0.013,2.02 ± 0.04,0.594 ± 0.3,0.154 ± 0.35
GUUGGU,1.98 ± 0.027,2.02 ± 0.029,0.346 ± 0.21,0.126 ± 0.09
GUUUAG,1.965 ± 0.0083,2.02 ± 0.033,0.516 ± 0.048,0.495 ± 0.068
AAAUCU,2.0432 ± 0.0014,2.03 ± 0.048,–,–
AAAUCA,1.996 ± 0.0046,2.02 ± 0.047,–,–
AAAAUG,1.935 ± 0.013,2.02 ± 0.024,–,–
AAAAUC,2.051 ± 0.0098,2.01 ± 0.023,–,–
CAAUCC,2.023 ± 0.0031,2.02 ± 0.049,–,–
CAAUCG,2.024 ± 0.012,2.02 ± 0.0061,–,–
CAAUCA,2.001 ± 0.0045,2.02 ± 0.033,–,–
CAAUCU,2.045 ± 0.0088,2.05 ± 0.028,–,–
UUUGGG,1.71 ± 0.022,1.94 ± 0.048,0.388 ± 0.062,0.73 ± 0.13
UUUGGA,1.9 ± 0.015,1.98 ± 0.029,0.333 ± 0.049,0.499 ± 0.056
UAAACU,2.008 ± 0.013,2.02 ± 0.058,–,–
UAAACC,2.006 ± 0.0033,2.01 ± 0.043,–,–
UAAACA,1.96 ± 0.02,1.994 ± 0.016,–,–
GAAUUU,2.029 ± 0.01,2.01 ± 0.022,–,–
GAAUUC,2.01 ± 0.0081,2.02 ± 0.024,–,–
GAAACC,2.035 ± 0.013,2.03 ± 0.033,–,–
GAAACA,2.017 ± 0.018,2.04 ± 0.026,–,–
GAAACG,1.961 ± 0.0057,2 ± 0.038,–,–
UUUUUG,1.855 ± 0.016,2 ± 0.022,0.145 ± 0.073,0.176 ± 0.0085
